B1: d2-labeled anti-EGFR single domain antibody G10 (VHH)
VHH: EVQLVESGGGLVQAGGSLRLSCAASGRTFSNYAMGWFRQAPGKEREFVAGIIWSGSRTYYADPVKGRFTISRDNAKNTVYLQMNSLNVEDTAVYYCAASMGDYDVSLASPRSWGKGTQVTVSS
modifications: d2 fluorochrome (d2-NHS) on lysine residues, positions not given
notes: G10 chemically coupled to the acceptor fluorochrome d2 by NHS chemistry; also called G10-d2; d2-labeled clone G10; not shown: His tag
B2: anti-EGFR single domain antibody G10 (VHH, not shown: small tags and cut ends)
VHH: EVQLVESGGGLVQAGGSLRLSCAASGRTFSNYAMGWFRQAPGKEREFVAGIIWSGSRTYYADPVKGRFTISRDNAKNTVYLQMNSLNVEDTAVYYCAASMGDYDVSLASPRSWGKGTQVTVSS
notes: Llama VHH produced in E. coli, His-tagged; also called sdAb G10; unlabeled G10
B3: d2-labeled anti-EGFR single domain antibody E10 (VHH)
VHH: QVQLQESGGGLAQAGGSLRLSCAASGRTLSSYDMGWFRQAPGKEREFVTAINWGDLSTYYADSVKGRFTISRDNAKNTVYLQMNSLKPEDTAVYYCAARLRYTVSDPIFSRPDRYNYWGQGTQVTVSS
modifications: d2 fluorochrome (d2-NHS) on lysine residues, positions not given
notes: E10 chemically coupled to the acceptor fluorochrome d2 by NHS chemistry; also called E10-d2; E10-D2; not shown: His tag
B4: anti-EGFR single domain antibody E10 (VHH, not shown: small tags and cut ends)
VHH: QVQLQESGGGLAQAGGSLRLSCAASGRTLSSYDMGWFRQAPGKEREFVTAINWGDLSTYYADSVKGRFTISRDNAKNTVYLQMNSLKPEDTAVYYCAARLRYTVSDPIFSRPDRYNYWGQGTQVTVSS
notes: Llama VHH produced in E. coli, His-tagged; also called sdAb E10; unlabeled E10
B5: biparatopic single domain antibody D4E (D10 - 4x(G4S) linker - E10) (bispecific antibody)
chain: EVQLQESGGGLVQAGGSLRLSCAVSISRTIFSLYAMEWYRQPPGKQRDLVARIYRSGDTNYADSVKGRFTISRDNAKNTVYLQMNSLKPEDTGVYYCNSPAQDWPWGQGTQVTVSSAAAGGGGSGGGGSGGGGSGGGGSMAQVQLQESGGGLAQAGGSLRLSCAASGRTLSSYDMGWFRQAPGKEREFVTAINWGDLSTYYADSVKGRFTISRDNAKNTVYLQMNSLKPEDTAVYYCAARLRYTVSDPIFSRPDRYNYWGQGTQVTVSSAAAEQKLISEEDLNGAAHHHHHHGS
notes: also called bisdAb D4E
B6: anti-EGFR single domain antibody D10 (VHH, not shown: small tags and cut ends)
VHH: EVQLVESGGGLVQAGGSLRLSCAVSISRTIFSLYAMEWYRQPPGKQRDLVARIYRSGDTNYADSVKGRFTISRDNAKNTVYLQMNSLKPEDTGVYYCNSPAQDWPWGQGTQVTVSS
notes: Llama VHH produced in E. coli, His-tagged; also called sdAb D10; unlabeled D10
B7: d2-labeled anti-EGFR single domain antibody D10 (VHH)
VHH: EVQLVESGGGLVQAGGSLRLSCAVSISRTIFSLYAMEWYRQPPGKQRDLVARIYRSGDTNYADSVKGRFTISRDNAKNTVYLQMNSLKPEDTGVYYCNSPAQDWPWGQGTQVTVSS
modifications: d2 fluorochrome (d2-NHS) on lysine residues, positions not given
notes: D10 chemically coupled to the acceptor fluorochrome d2 by NHS chemistry; also called D10-d2; d2-labeled clone D10; not shown: His tag

Columns and labels:
[1] = biological target: T1, EGFR fused to SNAP-tag, expressed on transfected HEK293T cells (UniProt P00533 25-1210, terbium cryptate donor fluorochrome (SNAP-Tb) covalently on the SNAP-tag); assay: KD in the presence of cetuximab as competitor; method not stated for Table 3
T1 construct: whole, on cells; also called EGFR-ST; ErbB1-ST; not shown: SNAP-tag and FLAG tag (Cisbio plasmid)

[2] = biological target: T1, EGFR fused to SNAP-tag, expressed on …; assay: KD in the presence of m425 as competitor; method not stated for Table 3
[3] = biological target: T2, wild type EGFR on cells in the presence of EGF (ligand-activated, extended conformation) (UniProt P00533 25-1210; P01133 971-1023); assay: flow cytometry on A431 cells, G10-d2 in the presence of EGF
T2 construct: Receptor-ligand complex as the target: EGFR with EGF added to the cells; also called extended EGFR

[4] = biological target: T1, EGFR fused to SNAP-tag, expressed on …; assay: KD in the presence of panitumumab as competitor; method not stated for Table 3
[5] = biological target: T1, EGFR fused to SNAP-tag, expressed on …; assay: HTRF on EGFR-ST cells; KD in the presence of D10 as competitor
[6] = biological target: T1, EGFR fused to SNAP-tag, expressed on …; assay: HTRF on EGFR-ST transfected HEK293T cells, directly d2-labeled sdAb; apparent Kd
[7] = biological target: T1, EGFR fused to SNAP-tag, expressed on …; assay: HTRF on EGFR-ST cells; KD in the presence of irrelevant sdAb as competitor
[8] = biological target: T1, EGFR fused to SNAP-tag, expressed on …; assay: KD in the presence of irrelevant sdAb as competitor; method not stated for Table 3
[9] = biological target: T1, EGFR fused to SNAP-tag, expressed on …; assay: HTRF on EGFR-ST cells; KD in the presence of E10 as competitor
[10] = biological target: T3, ErbB2 fused to SNAP-tag, expressed on transfected HEK293T cells (UniProt P04626 23-1255, donor fluorochrome covalently on the SNAP-tag); assay: HTRF on transfected HEK293T cells, anti-His-d2 detection
T3 construct: whole, on cells; also called ErbB2-ST; not shown: SNAP-tag and FLAG tag

[11] = biological target: T4, ErbB3 fused to SNAP-tag, expressed on transfected HEK293T cells (UniProt P21860 20-1342, donor fluorochrome covalently on the SNAP-tag); assay: as above
T4 construct: whole, on cells; also called ErbB3-ST; not shown: SNAP-tag and FLAG tag

[12] = biological target: T5, ErbB4 fused to HALO-Tag, expressed on transfected HEK293T cells (UniProt Q15303 26-1308, donor fluorochrome covalently on the HALO-Tag); assay: as above
T5 construct: whole, on cells; also called ErbB4-HT; not shown: HALO-Tag and c-myc tag

[13] = biological target: T1, EGFR fused to SNAP-tag, expressed on …; assay: HTRF on EGFR-ST transfected HEK293T cells, sdAb detected with anti-His-d2; apparent Kd
[14] = biological target: T6, wild type EGFR on cells (A431 cells; HEK293T or NIH/3T3 cells transfected with wild type ErbB1) (UniProt P00533 25-1210, limits assumed); assay: flow cytometry on A431 cells, d2-labeled sdAb with large excess of cetuximab
T6 construct: whole, on cells; no ligand added; also called HER1

[15] = biological target: T2, wild type EGFR on cells in the presence …; assay: flow cytometry on A431 cells, d2-labeled sdAb with excess EGF
[16] = biological target: T1, EGFR fused to SNAP-tag, expressed on …; assay: KD in the presence of Ab-3 as competitor; method not stated for Table 3
[17] = biological target: T1, EGFR fused to SNAP-tag, expressed on …; assay: HTRF on EGFR-ST cells; KD in the presence of G10 as competitor
[18] = biological target: T6, wild type EGFR on cells (A431 cells; …); assay: cell-based or functional assay
[19] = biological target: T1, EGFR fused to SNAP-tag, expressed on …; assay: HTRF on living cells; comparison value for monovalent D10
[20] = biological target: T1, EGFR fused to SNAP-tag, expressed on …; assay: KD in the presence of irrelevant sdAb as competitor; method not stated for Table 3 (values of this column equal Table 2, HTRF on EGFR-ST)

T5 sequence (Q15303 26-1308): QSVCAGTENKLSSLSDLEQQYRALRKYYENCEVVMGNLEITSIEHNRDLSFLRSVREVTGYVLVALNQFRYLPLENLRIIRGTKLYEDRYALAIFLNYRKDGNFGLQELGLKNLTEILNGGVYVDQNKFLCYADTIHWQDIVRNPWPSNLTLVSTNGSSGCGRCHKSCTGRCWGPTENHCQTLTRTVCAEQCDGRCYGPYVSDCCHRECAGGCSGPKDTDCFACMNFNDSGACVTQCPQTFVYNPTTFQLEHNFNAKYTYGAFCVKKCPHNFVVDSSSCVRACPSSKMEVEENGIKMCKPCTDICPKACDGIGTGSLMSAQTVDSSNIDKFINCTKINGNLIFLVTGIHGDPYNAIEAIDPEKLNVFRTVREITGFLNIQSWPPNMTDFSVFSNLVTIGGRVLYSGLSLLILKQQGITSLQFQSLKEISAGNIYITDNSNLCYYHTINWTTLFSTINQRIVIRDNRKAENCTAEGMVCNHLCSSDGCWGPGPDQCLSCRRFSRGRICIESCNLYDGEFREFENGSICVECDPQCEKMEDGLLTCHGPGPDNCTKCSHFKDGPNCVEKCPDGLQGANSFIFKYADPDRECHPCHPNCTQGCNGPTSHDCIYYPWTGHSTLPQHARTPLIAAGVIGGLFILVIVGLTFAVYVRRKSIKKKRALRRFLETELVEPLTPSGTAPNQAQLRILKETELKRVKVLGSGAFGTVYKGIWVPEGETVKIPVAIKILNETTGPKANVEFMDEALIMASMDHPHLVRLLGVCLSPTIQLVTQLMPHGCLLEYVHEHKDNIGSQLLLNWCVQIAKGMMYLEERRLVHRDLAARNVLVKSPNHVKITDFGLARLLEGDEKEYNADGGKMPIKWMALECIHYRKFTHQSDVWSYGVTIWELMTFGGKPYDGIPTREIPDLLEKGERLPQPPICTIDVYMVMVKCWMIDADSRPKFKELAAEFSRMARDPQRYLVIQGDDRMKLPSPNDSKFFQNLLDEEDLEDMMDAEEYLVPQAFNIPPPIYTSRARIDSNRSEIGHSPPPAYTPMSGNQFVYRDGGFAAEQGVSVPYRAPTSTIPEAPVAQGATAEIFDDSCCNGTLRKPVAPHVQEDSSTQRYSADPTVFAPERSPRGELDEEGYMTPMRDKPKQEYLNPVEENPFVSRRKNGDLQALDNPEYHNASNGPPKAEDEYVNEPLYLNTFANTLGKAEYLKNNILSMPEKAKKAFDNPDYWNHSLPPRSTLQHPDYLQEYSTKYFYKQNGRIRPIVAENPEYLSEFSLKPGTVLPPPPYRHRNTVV

Binder | Kd [1] [nM] | Kd [4] [nM] | Kd [6] [nM] | Kd [7] [nM] | binding result [10] | binding result [11] | binding result [12] | Kd [13] [nM] | further results
B1 | 21 | 27 | 87 | 12 | – | – | – | – | Kd [2]: 32 nM; fold increase of affinity against EGFR without EGF [3]: 8 fold; Kd [5]: 6 nM; Kd [8]: 12 nM; Kd [9]: 17 nM
B2 | – | – | – | – | no binding | no binding | no binding | 15 | –
B3 | 11 | 70 | 106 | 20 | – | – | – | – | fold increase of binding in the presence of cetuximab [14]: 2 fold; binding result [15]: no binding; Kd [5]: 17 nM; Kd [8]: 20 nM; Kd [16]: 67 nM; Kd [17]: 17 nM
B4 | – | – | – | – | no binding | no binding | no binding | 25 | –
B5 | – | – | – | – | – | – | – | – | inhibition of EGF-induced EGFR phosphorylation (FIG. 11); concentration against that of cetuximab [18]: 100 fold
B6 | – | – | – | – | no binding | no binding | no binding | 7 | Kd [19]: 6 nM
B7 | 10 | 13 | 27 | 7 | – | – | – | – | Kd [20]: 7 nM; Kd [2]: 14 nM; binding result [15]: no binding; Kd [16]: 3 nM; Kd [9]: 11 nM; Kd [17]: 7 nM

Reference: US20170190787A1 (INSERM INSTITUT NATIONAL DE LA SANT ET DE LA RECHERCHE M …, published 2017)
